Experimental data as given in patent US20210206877.

Biological target: certain anti-BACE1 antibodies (tested in the FRET short substrate assay)

B1: BACE1 ECD (as used in the enzyme activity assay) (protein)
chain: TQHGIRLPLRSGLGGAPLGLRLPRETDEEPEEPGRRGSFVEMVDNLRGKSGQGYYVEMTVGSPPQTLNILVDTGSSNFAVGAAPHPFLHRYYQRQLSSTYRDLRKGVYVPYTQGKWEGELGTDLVSIPHGPNVTVRANIAAITESDKFFINGSNWEGILGLAYAEIARPDDSLEPFFDSLVKQTHVPNLFSLQLCGAGFPLNQSEVLASVGGSMIIGGIDHSLYTGSLWYTPIRREWYYEVIIVRVEINGQDLKMDCKEYNYDKSIVDSGTTNLRLPKKVFEAAVKSIKAASSTEKFPDGFWLGEQLVCWQAGTTPWNIFPVISLYLMGEVTNQSFRITILPQQYLRPVEDVATSQDDCYKFAISQSSTGTVMGAVIMEGFYVVFDRARKRIGFAVSACHVHDEFRTAAVEGPFVTLDMEDCGYNIPQTDESTLMT
With B1 the “Modulation of BACE1 activity (cleavage of FRET short substrate Mca-SEVNLDAEFRK(Dnp)RR-NH2)” value was “both enzyme inhibition (positive percentages), and enzyme activation (negative values) were observed”.
